# Patent US20240424129A1, “RECOMBINANT FUSION ANTIBODY, AND ANTIBODY-DRUG CONJUGATE AND USE THEREOF” (SUN YAT-SEN UNIVERSITY, priority 2021, published 2024)
# Residue numbers refer to the chain shown, from its start. In names and notes the source's numbering stands.
# B1: VHH0: non-fused anti-HER2 nanobody VHH-S84C-His6, SEQ ID NO: 32 (protein)
# VHH: EVQLVESGGGLVQAGGSLRLSCAASGITFSINTMGWYRQAPGKQRELVALISSIGDTYYADSVKGRFTISRDNAKNTVYLQMNCLKPEDTAVYYCKRFRTAAQGTDYWGQGTQVTVSSHHHHHH
# modifications: His6 tag
# B2: VHH0-MMAF (conjugate)
# VHH: B1 VHH
# B3: Fused VHH24-MMAF (conjugate)
# VHH: EVQLVESGGGLVQAGGSLRLSCAASGITFSINTMGWYRQAPGKQRELVALISSIGDTYYADSVKGRFTISRDNAKNTVYLQMNCLKPEDTAVYYCKRFRTAAQGTDYWGQGTQVTVSSHHHHHHHLPETGGGRRRRKRKRSHAGYQTI
# B4: Fused VHH21-MMAF (conjugate)
# VHH: EVQLVESGGGLVQAGGSLRLSCAASGITFSINTMGWYRQAPGKQRELVALISSIGDTYYADSVKGRFTISRDNAKNTVYLQMNCLKPEDTAVYYCKRFRTAAQGTDYWGQGTQVTVSSHHHHHHLPETGGGRRLRKSFHDDSDEDLLHI
# B5: Fused VHH22-MMAF (conjugate)
# VHH: B4 VHH with L134R
# B6: Fused VHH23-MMAF (conjugate)
# VHH: EVQLVESGGGLVQAGGSLRLSCAASGITFSINTMGWYRQAPGKQRELVALISSIGDTYYADSVKGRFTISRDNAKNTVYLQMNCLKPEDTAVYYCKRFRTAAQGTDYWGQGTQVTVSSHHHHHHHLPETGGGRKRSHAGYQTI
# B7: Fused VHH7-MMAF (conjugate)
# VHH: EVQLVESGGGLVQAGGSLRLSCAASGITFSINTMGWYRQAPGKQRELVALISSIGDTYYADSVKGRFTISRDNAKNTVYLQMNCLKPEDTAVYYCKRFRTAAQGTDYWGQGTQVTVSSHHHHHHLPETGGGSDEDLLHI
# B8: Fused VHH26-MMAF (conjugate)
# VHH: EVQLVESGGGLVQAGGSLRLSCAASGITFSINTMGWYRQAPGKQRELVALISSIGDTYYADSVKGRFTISRDNAKNTVYLQMNCLKPEDTAVYYCKRFRTAAQGTDYWGQGTQVTVSSHHHHHHHLPETGGGRRLRKHHHAGYEQF
# B9: Fused VHH4-MMAF (conjugate)
# VHH: EVQLVESGGGLVQAGGSLRLSCAASGITFSINTMGWYRQAPGKQRELVALISSIGDTYYADSVKGRFTISRDNAKNTVYLQMNCLKPEDTAVYYCKRFRTAAQGTDYWGQGTQVTVSSHHHHHHHLPETGGGASSGLDDLDLLGK
# B10: Fused VHH6-MMAF (conjugate)
# VHH: B9 VHH with A133N, S134A, S135L, G136S, L137W, D138L, L140E, D141E, G144C, K145L
# B11: Fused VHH3-MMAF (conjugate)
# VHH: EVQLVESGGGLVQAGGSLRLSCAASGITFSINTMGWYRQAPGKQRELVALISSIGDTYYADSVKGRFTISRDNAKNTVYLQMNCLKPEDTAVYYCKRFRTAAQGTDYWGQGTQVTVSSHHHHHHLPETGGGASVSLLDDEL
# B12: Fused VHH15-MMAF (conjugate)
# VHH: B11 VHH with A132S, S133Y, V134K, S135Y, L136S, L137K, D138V, D139N, E140K, L141E
# B13: Fused VHH16-MMAF (conjugate)
# VHH: B11 VHH with A132P, S133A, V134A, S135Y, L136R, L137G, D138V, D139G, E140D, L141D
# B14: Fused VHH9-MMAF (conjugate)
# VHH: EVQLVESGGGLVQAGGSLRLSCAASGITFSINTMGWYRQAPGKQRELVALISSIGDTYYADSVKGRFTISRDNAKNTVYLQMNCLKPEDTAVYYCKRFRTAAQGTDYWGQGTQVTVSSHHHHHHGGGSDEDLLHI
# B15: Fused VHH12-MMAF (conjugate)
# VHH: EVQLVESGGGLVQAGGSLRLSCAASGITFSINTMGWYRQAPGKQRELVALISSIGDTYYADSVKGRFTISRDNAKNTVYLQMNCLKPEDTAVYYCKRFRTAAQGTDYWGQGTQVTVSSHHHHHHGGGGSGGGGSGGGGSSDEDLLHI
# B16: Fused VHH5-MMAF (conjugate)
# VHH: EVQLVESGGGLVQAGGSLRLSCAASGITFSINTMGWYRQAPGKQRELVALISSIGDTYYADSVKGRFTISRDNAKNTVYLQMNCLKPEDTAVYYCKRFRTAAQGTDYWGQGTQVTVSSHHHHHHLPETGGGVQNPSADRNLLDL
# B17: Fused VHH19-MMAF (conjugate)
# VHH: B16 VHH with V132R, Q133R, N134R, P135R, S136K, A137S, R139E, N140D, D143H, L144I
# B18: Fused VHH1-MMAF (conjugate)
# VHH: B16 VHH with V132A, Q133S, N134V, P135S, S136L, A137L, R139D, N140E, L142M, D143S
# B19: Fused VHH14-MMAF (conjugate)
# VHH: B16 VHH with V132E, Q133E, N134S, P135E, S136E, A137R, R139D, N140H, D143P, L144M
# B20: Fused VHH13-MMAF (conjugate)
# VHH: B16 VHH with V132S, Q133F, N134H, P135D, S136D, A137S, R139E, N140D, D143H, L144I
# B21: Fused VHH25-MMAF (conjugate)
# VHH: EVQLVESGGGLVQAGGSLRLSCAASGITFSINTMGWYRQAPGKQRELVALISSIGDTYYADSVKGRFTISRDNAKNTVYLQMNCLKPEDTAVYYCKRFRTAAQGTDYWGQGTQVTVSSHHHHHHHLPETGGGKHHHAGYEQF
# B22: Fused VHH20-MMAF (conjugate)
# VHH: EVQLVESGGGLVQAGGSLRLSCAASGITFSINTMGWYRQAPGKQRELVALISSIGDTYYADSVKGRFTISRDNAKNTVYLQMNCLKPEDTAVYYCKRFRTAAQGTDYWGQGTQVTVSSHHHHHHLPETGGGRRRSFHDDSDEDLLHI
# B23: Fused VHH2-MMAF (conjugate)
# VHH: EVQLVESGGGLVQAGGSLRLSCAASGITFSINTMGWYRQAPGKQRELVALISSIGDTYYADSVKGRFTISRDNAKNTVYLQMNCLKPEDTAVYYCKRFRTAAQGTDYWGQGTQVTVSSHHHHHHLPETGGGRRRASVSLLDDELMSL
# B24: Fused VHH18-MMAF (conjugate)
# VHH: EVQLVESGGGLVQAGGSLRLSCAASGITFSINTMGWYRQAPGKQRELVALISSIGDTYYADSVKGRFTISRDNAKNTVYLQMNCLKPEDTAVYYCKRFRTAAQGTDYWGQGTQVTVSSHHHHHHLPETGGGRRLRSDEDLLHI
# B25: Fused VHH10-MMAF (conjugate)
# VHH: EVQLVESGGGLVQAGGSLRLSCAASGITFSINTMGWYRQAPGKQRELVALISSIGDTYYADSVKGRFTISRDNAKNTVYLQMNCLKPEDTAVYYCKRFRTAAQGTDYWGQGTQVTVSSHHHHHHGGGGGSDEDLLHI
# B26: Fused VHH11-MMAF (conjugate)
# VHH: B25 VHH with G129S
# B27: Fused VHH17-MMAF (conjugate)
# VHH: EVQLVESGGGLVQAGGSLRLSCAASGITFSINTMGWYRQAPGKQRELVALISSIGDTYYADSVKGRFTISRDNAKNTVYLQMNCLKPEDTAVYYCKRFRTAAQGTDYWGQGTQVTVSSHHHHHHLPETGGGRRRSDEDLLHI
# Tested on: SKBR3 cells
# Experiment: In-vitro cytotoxicity, CCK8 cell viability
# Assay type: cell-based, human
# Details: SKBR3, 48 h, CCK8
# Experimental: (§1) In this example, human breast cancer cell line SKBR3 with high expression of HER2 and human ovarian cancer cell line SKOV3 with high expression of HER2 were chosen to evaluate the ability of the recombinant-fusion-antibody-drug conjugates to inhibit the growth of cancer cells. The recombinant-fusion-antibody-drug conjugates of different concentrations were added to a 96-well plate seeded with SKBR3 or SKOV3 cells. After treatment for 48 h, the viability of cells was calculated using a CCK8 kit.
# Cell viability was measured using different concentrations of MMAF, VHH0-MMAF, or different recombinant-fusion-nanobody-drug conjugates (fused VHH1-MMAF to fused VHH26-MMAF). The half-maximal inhibitory concentration IC50 was calculated (FIGS. 14A-14C, and Table 7). FIGS. 14A, 14B and 14C respectively show the viability of SKBR3 cells treated with the recombinant-fusion-nanobody-drug conjugates, including fused VHH1-MMAF to fused VHH6-MMAF, fused VHH7-MMAF to fused VHH22-MMAF, and fused VHH23-MMAF to fused VHH26-MMAF. […] Data are expressed as the mean (n=3).
# SKBR3 and SKOV3 cells were chosen to evaluate the ability of the recombinant-fusion-full-length-antibody-drug conjugates to inhibit the growth of cancer cells. […] The half-maximal inhibitory concentration IC50 was calculated.
Molecule,viability of the treated cells,maximal killing
B1,approximately 100%,–
B2,–,about 50%

# Same assay, conditions: SKBR3, 48 h, CCK8, mean n=3; Table 7
row,Molecule,IC50
1,B3,0.128 nM
2,B2,1.57 nM
3,B4,0.016 nM
4,B5,0.014 nM
5,B6,0.098 nM
6,B7,0.336 nM
7,B8,0.095 nM
8,B9,0.885 nM
9,B10,0.791 nM
10,B11,0.109 nM
11,B12,0.051 nM
12,B13,0.027 nM
13,B14,0.294 nM
14,B15,0.14 nM
15,B16,0.791 nM
16,B17,0.564 nM
17,B18,1.34 nM
18,B19,0.069 nM
19,B20,0.0798 nM
20,B21,0.466 nM
21,B22,0.038 nM
22,B23,0.126 nM
23,B24,0.394 nM
24,B25,0.232 nM
25,B26,0.16 nM
26,B27,0.165 nM

# Tested on: MDA-MB-231 cells
# Experiment: In-vitro cytotoxicity, HER2-negative negative control
# Assay type: cell-based, human
# Details: MDA-MB-231, FIG. 15
# Experimental: as §1
# In addition, in this example, the HER2-negative MDA-MB-231 cells were chosen as a negative control to compare the ability of fused VHH7-MMAF, fused VHH8-MMAF, VHH0-MMAF, VHH0, and MMAF to inhibit the growth of cancer cells.
row,Molecule,cytotoxicity in HER2-negative cells
1,B1,none of the substances are cytotoxic
2,B2,none of the substances are cytotoxic
3,B7,none of the substances are cytotoxic
